{"source": "patent US7563760", "about": "(GENETICS INSTITUTE, dated 2009)", "key": {"[1]": {"target": "T1, P-selectin expressed on the surface of CHO cells (CHO:P-selectin cell line) (UniProt P16109 42-830, limits assumed)", "T1 construct": "whole, on cells; also called P-selectin expressing CHO cells", "T1 sequence (looked up)": "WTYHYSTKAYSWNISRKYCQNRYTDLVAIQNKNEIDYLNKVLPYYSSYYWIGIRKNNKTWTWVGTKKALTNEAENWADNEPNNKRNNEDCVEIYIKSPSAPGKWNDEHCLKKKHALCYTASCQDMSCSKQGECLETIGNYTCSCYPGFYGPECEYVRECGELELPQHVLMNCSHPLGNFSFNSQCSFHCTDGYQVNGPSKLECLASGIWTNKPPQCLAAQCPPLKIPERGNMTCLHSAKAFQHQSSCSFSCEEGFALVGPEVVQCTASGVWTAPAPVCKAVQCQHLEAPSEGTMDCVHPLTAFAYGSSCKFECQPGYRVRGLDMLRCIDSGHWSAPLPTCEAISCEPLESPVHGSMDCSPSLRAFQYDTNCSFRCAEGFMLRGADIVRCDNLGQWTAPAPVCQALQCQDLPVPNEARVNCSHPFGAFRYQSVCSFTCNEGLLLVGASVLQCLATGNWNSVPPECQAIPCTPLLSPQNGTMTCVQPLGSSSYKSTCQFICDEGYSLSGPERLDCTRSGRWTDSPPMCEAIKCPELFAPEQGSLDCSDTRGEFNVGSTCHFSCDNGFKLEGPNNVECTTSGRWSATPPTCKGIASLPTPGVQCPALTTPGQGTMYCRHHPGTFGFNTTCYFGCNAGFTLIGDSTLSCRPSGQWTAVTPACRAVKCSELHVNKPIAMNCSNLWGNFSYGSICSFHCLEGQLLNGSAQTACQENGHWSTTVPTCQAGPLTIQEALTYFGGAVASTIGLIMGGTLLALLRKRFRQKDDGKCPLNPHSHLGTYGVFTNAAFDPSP", "experiment": "adhesion of 3H-thymidine-labelled CHO:P-selectin cells to transfected COS cells", "description": "COS cells were co-transfected with the pMT21:PL85 plasmid of Example 1 and the pEA.3/4FT plasmid of Example 2 by the same procedure used in the initial stages of screening. As controls, COS cells were transfected with pMT21:PL85 alone, or with pEA.3/4FT alone, or with a similar plasmid containing no insert (\"mock\"). 24 hours post-transfection, the transfected cells were trypsinized and distributed into Costar 6-well tissue culture plates. CHO:P-selectin cells were labeled for 16 hours with ^3H-thymidine using known methods and preincubated at 0.5×10^6 cells/ml for 30 minutes at 4° C. in α medium containing 1% BSA (control); α medium containing 1% BSA, 5 mM EDTA and 5 mM EGTA; α medium containing 1% BSA and 10 μg/ml of a neutralizing anti P-selectin monoclonal antibody; and α medium containing 1% BSA and a non-neutralizing anti-P-selectin monoclonal antibody. The preincubated cells were then added to the wells containing the transfected COS cells. After a 10 minute incubation, unbound cells were removed by 4 changes of medium. The bound CHO:P-selectin cells were released by trypsinization and quantified by scintillation counting.\nLikewise, incubation with neutralizing anti-P-selectin antibody also eliminated specific binding, whereas non-neutralizing antibody had no effect. […]"}, "[2]": {"target": "T2, LEC-γ1, chimeric form of P-selectin conjugated to the Fc portion of a human IgGγ1 (human, UniProt P16109 42-771)", "T2 construct": "extracellular domain; Built by known methods (Aruffo et al. 1991), made in CHO DUKX cells; also called P-selectin/IgG chimera; P-selectin/Fc chimera; not shown: Fc portion of a human IgGγ1", "T2 sequence (looked up)": "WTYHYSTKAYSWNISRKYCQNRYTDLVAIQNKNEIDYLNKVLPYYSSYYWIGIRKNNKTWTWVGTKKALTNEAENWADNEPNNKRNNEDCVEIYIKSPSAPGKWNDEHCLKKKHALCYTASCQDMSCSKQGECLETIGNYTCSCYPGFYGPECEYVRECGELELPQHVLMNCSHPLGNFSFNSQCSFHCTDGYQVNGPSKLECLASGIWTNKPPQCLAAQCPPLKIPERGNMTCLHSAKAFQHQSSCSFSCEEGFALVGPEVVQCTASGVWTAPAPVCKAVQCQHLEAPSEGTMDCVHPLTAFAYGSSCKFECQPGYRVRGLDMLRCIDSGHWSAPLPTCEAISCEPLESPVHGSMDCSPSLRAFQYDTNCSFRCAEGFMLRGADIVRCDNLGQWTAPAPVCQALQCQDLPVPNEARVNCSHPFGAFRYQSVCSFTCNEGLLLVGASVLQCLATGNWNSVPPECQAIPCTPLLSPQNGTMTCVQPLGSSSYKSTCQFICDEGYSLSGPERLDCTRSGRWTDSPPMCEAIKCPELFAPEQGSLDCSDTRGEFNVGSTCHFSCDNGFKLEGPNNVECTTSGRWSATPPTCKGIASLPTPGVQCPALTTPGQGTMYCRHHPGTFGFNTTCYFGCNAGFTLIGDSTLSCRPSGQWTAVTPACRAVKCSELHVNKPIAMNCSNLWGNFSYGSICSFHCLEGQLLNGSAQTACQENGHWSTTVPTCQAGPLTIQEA", "experiment": "affinity capture on P-selectin/IgG chimera protein A sepharose, EDTA elution, scintillation counting", "description": "U937 cells (approximately 6.5 ×10^7) were recovered from tissue culture plates and divided equally into two 50 mL cultures (final concentration of […]) containing fresh complete RPMI medium and 50 µCi/ml of ^3H-glucosamine hydrochloride (labels the protein-linked carbohydrate of glycoproteins [Varki, FASEB 5:226-235 (1991)]. After 48 hours incubation, the cells from both cultures were recovered by centrifugation and washed three times with PBS. The pelleted cells were suspended in 2.5 mL each of a lysis buffer containing 1% Triton X-100 and disrupted by probe sonication for two minutes. The detergent lysates were placed on ice for three hours and then resonicated for an additional two minutes. The lysates were centrifuged at 16,000 rpm for five minutes, the supernatants were recovered and each adjusted to 12 mL with lysis buffer containing no detergent. […]\nFollowing incubation, the two parallel reaction mixtures were each centrifuged at 2,000 rpm and supernatants were discarded. […] A final 1 mL pre-elution wash of each resin pellet using buffer containing 0.01% Triton X-100 was conducted and these were retained for quantitation of radioactive counts by liquid scintillation counting (LSC). […] The supernatants were recovered by centrifugation and then quantitated by LSC."}, "[3]": {"target": "T3, E-selectin/IgG chimera of Example 9 (human) (UniProt P16581)", "T3 sequence (looked up)": "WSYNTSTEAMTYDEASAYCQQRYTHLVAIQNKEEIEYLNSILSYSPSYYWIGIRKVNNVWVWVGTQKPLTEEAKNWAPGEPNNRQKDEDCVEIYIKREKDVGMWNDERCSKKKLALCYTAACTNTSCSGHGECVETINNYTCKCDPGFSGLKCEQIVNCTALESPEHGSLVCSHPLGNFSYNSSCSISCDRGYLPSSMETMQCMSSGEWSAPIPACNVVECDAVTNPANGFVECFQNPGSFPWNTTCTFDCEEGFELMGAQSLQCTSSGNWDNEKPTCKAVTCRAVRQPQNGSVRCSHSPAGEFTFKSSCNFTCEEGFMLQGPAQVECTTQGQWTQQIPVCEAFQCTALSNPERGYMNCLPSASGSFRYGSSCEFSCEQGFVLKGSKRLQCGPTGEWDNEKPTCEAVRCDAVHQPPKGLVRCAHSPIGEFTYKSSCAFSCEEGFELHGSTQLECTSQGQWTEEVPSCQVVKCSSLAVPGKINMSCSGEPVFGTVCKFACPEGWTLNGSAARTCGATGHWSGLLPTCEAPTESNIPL", "experiment": "affinity capture on E-selectin/IgG chimera protein A sepharose, EDTA elution, scintillation counting"}, "[4]": {"target": "T1, P-selectin expressed on the surface of …", "experiment": "plate coated with chimera; adhesion of CHO:P-selectin cells (FIG. 19)", "description": "(§1) Quantitative adhesion of CHO:P-selectin, CHO:E-selectin and CHO:L-selectin expressing cells was performed as described in Example 4(c), with the following modifications: COS cell and antibodies were omitted. Instead, 48-well microtiter plates (Costar) were coated for 16 hours at 4° C. with varying quantities of protein A-purified soluble PSGL-1/Fc chimeras. The unbound material was removed and the coated wells were treated with Hank's buffered saline (HBS) with 1 mg/ml BSA and 2 mM CaCl_2 for 1 hour at 4° C. Tritium labeled CHO selectin expressing cells were added and binding quantitated as described in Example 4(c)."}, "[5]": {"target": "T4, E-selectin expressed on CHO cells (CHO:E-selectin) (UniProt P16581 22-610, limits assumed)", "T4 construct": "whole, on cells; also called E-selectin expressing CHO cells; CHO cells which express E-selectin", "T4 sequence (looked up)": "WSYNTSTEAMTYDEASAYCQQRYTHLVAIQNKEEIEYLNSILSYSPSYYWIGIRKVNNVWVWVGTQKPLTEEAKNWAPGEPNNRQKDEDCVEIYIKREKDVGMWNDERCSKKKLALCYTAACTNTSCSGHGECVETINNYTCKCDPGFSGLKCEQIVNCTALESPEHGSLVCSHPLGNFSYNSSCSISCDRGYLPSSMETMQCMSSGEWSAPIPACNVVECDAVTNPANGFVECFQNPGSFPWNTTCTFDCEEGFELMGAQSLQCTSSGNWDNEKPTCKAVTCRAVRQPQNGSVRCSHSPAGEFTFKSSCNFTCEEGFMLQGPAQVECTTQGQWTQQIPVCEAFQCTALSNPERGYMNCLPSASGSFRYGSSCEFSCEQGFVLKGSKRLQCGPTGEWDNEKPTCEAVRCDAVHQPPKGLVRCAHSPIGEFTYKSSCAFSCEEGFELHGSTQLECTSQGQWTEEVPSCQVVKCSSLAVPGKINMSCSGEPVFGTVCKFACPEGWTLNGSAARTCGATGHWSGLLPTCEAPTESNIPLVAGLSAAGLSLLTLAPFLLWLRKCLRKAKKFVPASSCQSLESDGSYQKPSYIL", "experiment": "plate coated with chimera; adhesion of CHO:E-selectin cells (FIG. 20)", "description": "as §1"}, "[6]": {"target": "T1, P-selectin expressed on the surface of …", "experiment": "plate coated with chimera; adhesion of CHO:P-selectin cells (FIG. 17)", "description": "as §1"}, "[7]": {"target": "T4, E-selectin expressed on CHO cells …", "experiment": "plate coated with chimera; adhesion of CHO:E-selectin cells (FIG. 17)", "description": "as §1"}}, "note": "No end group written: not given here."}
{"binder": "full-length P-selectin ligand protein (PSGL-1, pMT21:PL85) expressed with fucosylation (COS or CHO cells with 3/4FT, or LEC11 cells) (ligand, glycosylated; co-expressed with (α1,3/α1,4) fucosyltransferase (3/4FT) or made in SLex-positive LEC11 cells, Encoded as amino acids 1-402; In blots and immunoprecipitations it stood as a membrane detergent extract; also called PSL; CD-PSGL-1 (R3.4) product) QATEYEYLDYDFLPETEPPEMLRNSTDTTPLTGPGTPESTTVEPAARRSTGLDAGGAVTELTTELANMGNLSTDSAAMEIQTTQPAATEAQTTPLAATEAQTTRLTATEAQTTPLAATEAQTTPPAATEAQTTQPTGLEAQTTAPAAMEAQTTAPAAMEAQTTPPAAMEAQTTQTTAMEAQTTAPEATEAQTTQPTATEAQTTPLAAMEALSTEPSATEALSMEPTTKRGLFIPFSVSSVTHKGIPMAASNLSVNYPVGAPDHISVKQCLLAILILALVATIFFVCTVVLAVRLSRKGHMYPVRNYSPTEMVCISSLLPDGGEGPSATANGGLSKAKSPGLTPEPREDREGDDLTLHSFLP", "values": [{"measurement": "fold binding of CHO:P-selectin cells relative to COS mock cells", "setting": "[1]", "result": "~5.4", "unit": "fold"}]}
{"binder": "native PSGL-1 of U937 cells (major glycoprotein captured from detergent extracts) (ligand, human, UniProt Q14242 42-412, looked up, native myeloid glycosylation, 3H-glucosamine labelled, 200-220 kD non-reduced, 100-120 kD reduced; also called U937 ligand; major U937 glycoprotein) QATEYEYLDYDFLPETEPPEMLRNSTDTTPLTGPGTPESTTVEPAARRSTGLDAGGAVTELTTELANMGNLSTDSAAMEIQTTQPAATEAQTTQPVPTEAQTTPLAATEAQTTRLTATEAQTTPLAATEAQTTPPAATEAQTTQPTGLEAQTTAPAAMEAQTTAPAAMEAQTTPPAAMEAQTTQTTAMEAQTTAPEATEAQTTQPTATEAQTTPLAAMEALSTEPSATEALSMEPTTKRGLFIPFSVSSVTHKGIPMAASNLSVNYPVGAPDHISVKQCLLAILILALVATIFFVCTVVLAVRLSRKGHMYPVRNYSPTEMVCISSLLPDGGEGPSATANGGLSKAKSPGLTPEPREDREGDDLTLHSFLP", "values": [{"measurement": "radiolabel in the EDTA eluate relative to the final pre-EDTA wash", "setting": "[2]", "result": "≥ 10", "unit": "fold"}, {"measurement": "radiolabel in the EDTA eluate relative to the final pre-EDTA wash", "setting": "[3]", "result": "> 10", "unit": "fold"}]}
{"binder": "H24.Q70.148.Fc (Fc fusion, glycosylated, co-expressed with 3/4FT, also called pED.H24.Q70.148.Fc product; not shown: NotI junction/linker of pED.Fc; Fc region of a human IgG1) QATEYEYLDYDFLPETEPPEMLRHSTDTTPLTGPGTPESTTVEPAARRSTGLDAGGAVTELTTELANMGQLSTDSAAMEIQTTQPAATEAQTTPLAATEAQTTRLTATEAQTTPLAATEAQTTPPAATEAQTTQPTGLEAQTTAPAAM", "values": [{"measurement": "binding result", "setting": "[4]", "result": "binds"}, {"measurement": "binding result", "setting": "[5]", "result": "binds"}]}
{"binder": "QATEYEYLDYDFLPETEPPEMLRNSTDTTPLTGPGTPESTTVEPAAR (Fc fusion, not fully specified (C-terminus); also: glycosylated, co-expressed with 3/4FT, sites not given here, also called pED.47.Fc product; not shown: NotI junction/linker of pED.Fc; Fc region of a human IgG1 from pED.PSL.Fc)", "note": "[47.Fc of Example 10, amino acids 42-88 of SEQ ID NO:2 fused to IgG Fc]", "values": [{"measurement": "binding result", "setting": "[6]", "result": "binds"}, {"measurement": "binding result", "setting": "[7]", "result": "binds"}]}
